These results are taken from patent US20240228986A1, “ENGINEERED CELLS, ENZYMES, AND METHODS FOR PRODUCING CANNABINOIDS” (priority 2021, published 2024).

Where a chain is given by its changes, count along the chain named.

What all share (assay type): cell-based, Yarrowia
For experiment [1], the system named is olivetolic acid. Nature of the experiment: Unfused rMPTs and APTs, CBGA/FCBGA formation in vivo assay (Example 4). The following applies: for CBGA / FCBGA / CBGA/FCB: 2 mM olivetolic acid, 48 h quench; for CBGA / FCBGA: 2% glucose, strain sCL-SE-0128; for CBGA/FCB: product ratio. On the procedure:
(§1) As described below, plasmids pCL-SE-0380 (MPT4), pCL-SE-0337.MPT4, pCL-SE-0338.APT73.74, and pCL-SE-0338.APT73.77 were transformed into strain sCL-SE-0128. Multiple colonies per transformation were precultured for 48 h in YNB containing glucose (2%), casamino acids (0.5%), and MES (100 mM pH 6.5). Pre-culture was used to inoculate assay medium comprised of YNB containing glucose (2%), casamino acids (0.5%), MES (100 mM pH 6.5), and olivetolic acid or divarinic acid (2 mM). Cultures were quenched with equal volume of ethanol after 48 h total growth and assayed for CBG(V)A and FCBG(V)A. Averages and standard deviations were calculated from replicates.
(§2) Overnight YPD (10 g/L yeast extract, 20 g/L peptone, 2% dextrose) cultures were inoculated from glycerol stocks of the appropriate strain and grown at 30° C. with 250 rpm shaking. Once cultures had reached an OD600 of 4-6, cultures were centrifuged at 500×g for 5 min, supernatants were discarded, and cell pellets were resuspended in equal volume of water. Resuspended cells were centrifuged at 500×g for 5 min, supernatants were discarded, and cells were resuspended in a volume (75 μL×OD×Vculture) of transformation cocktail (45% PEG-400, 0.1 M LiAc, 0.1 M DTT, and 25 ug/100 μL SS Salmon Sperm DNA). For each transformation, >1 μg of plasmid DNA was added to 55 μL cells/transformation cocktail and vortexed for 2 s. Transformations were incubated at 39° C. for 1 h with 250 rpm shaking. Transformations were resuspended in 750 μL YPD with 1 M sorbitol and recovered at 30° C. overnight with 250 rpm shaking. The next day, transformations were centrifuged at 500×g for 5 min, supernatants were discarded, and cell pellets were resuspended in 750 YPD. Resuspended transformations were plated on YPD with appropriate selection or YNBD (6.71 g/L yeast nitrogen base+nitrogen, 0.5% casamino acids, 2% dextrose) agar plates and grown at 30° C. for 2 days. Individual colonies were patched onto YPD plates with appropriate selection or YNBD plates and grown at 30° C. overnight. Patches were used to inoculate 0.5 mL YPD with appropriate selection or YNBD precultures in 96 w blocks and grown at 30° C. for 24-48 h with 1000 rpm shaking. For assays, 0.5 mL YPD with appropriate selection or YNBD cultures containing substrate were inoculated with 2 μL from precultures and grown at 30° C. for 2-4 days with 1000 rpm shaking with 2% glucose added every 24 h. Assay cultures were quenched by addition of 0.5 mL ethanol with 0.2% formic acid and 0.5 mg/mL pentyl-benzoic acid. Precipitates were pelleted by centrifuging at 4600×g for 10 min and then 200 μL was transferred to fresh plates, sealed, and analyzed via HPLC.
(§3) All samples were quenched with equal volume of EtOH containing 0.2 mg/mL internal standard (3,5-Diisopropyl-2-hydroxybenzoic acid CAS #2215-21-6) centrifuged, and clarified solutions were analyzed by HPLC-MS
(§4) • Column: 2.1×50 mm COSMOCORE PBr (Nacalai USA, Inc.) • Mobile Phase: A; 0.1% formic acid in water, B; 0.1% formic acid in acetonitrile • Flow: 0.45 mL/min • Temp: % 50 Celsius • Gradient: 20%B at 0 min, 70%B at 2.3 min, 89% B at 4.2 min, 20% B at 4.3 min, 20%B at 6 min

Experiment [2] concerns divarinic acid. Nature of the experiment: Unfused rMPTs and APTs, CBGVA/FCBGVA formation in vivo assay (Example 4). The following applies: 2 mM divarinic acid, 48 hour quench; for CBGVA / FCBGVA: 2% glucose, strain sCL-SE-0128. How it is done:
as §1, §2, §3, §4

Experiment [3] concerns olivetolic acid. The experiment can be described thus: MPT4.1 with and without GPS1.1 fusion vs MPT4 fusion, in vivo assay (Example 5). The following applies: 3 mM olivetolic acid, 48 h quench. On the procedure: (§5) As described below, plasmids pCL-SE-0337.MPT4.1 and pCL-SE-0753 were transformed into strain sCL-SE-0128. Multiple colonies per transformation were precultured for 24 h in YNB containing glucose (2%), casamino acids (0.5%), and MES (100 mM pH 6.5). Pre-culture was used to inoculate assay medium comprised of YNB containing glucose (6%), casamino acids (0.5%), MES (100 mM pH 6.5), and olivetolic acid (3 mM). Cultures were quenched with equal volume of ethanol after 48 h total growth and assayed for CBGA and FCBGA. Averages and standard deviations were calculated from replicates.
as §2, §3, §4

In experiment [4] the test system is olivetolic acid. Nature of the experiment: Linkers for GPS1.1-MPT4 fusions, in vivo assay (Example 6). The following applies: 1 mM olivetolic acid, 72 h quench. On the procedure:
As described in detail below, plasmids pCL-SE-0380 (MPT4), pCL-SE-0406, pCL-SE-0435, and pCL-SE-0437 were transformed into strain sCL-SE-0128. Four separate colonies per transformation were precultured for 24 h in YNB containing glycerol (2%), casamino acids (0.5%), and MES (100 mM pH 6.5). Pre-culture was used to inoculate assay medium comprised of YNB containing glycerol (2%), casamino acids (0.5%), MES (100 mM pH 6.5), and olivetolic acid (1 mM). Cultures were quenched after 72 h total growth by mixing with equal volume of EtOH. Enzymes produced CBGA and FCBGA. Averages and standard deviations were calculated from replicates.
However, sCL-SE-0128 expresses HMGR and GPS1.1 to increase intracellular GPP levels for prenylation of OA to CBGA. The plasmids that were transformed contain either a gene expressing a prenyl-transferase (pCL-SE-0380 (MPT4)) or a gene expressing a fusion between GPS1.1 and a prenyl-transferase with different linker sequences.
as §2, §3, §4

Experiment [5] concerns olivetolic acid. Nature of the experiment: MPT fusions with GPS1.1 vs unfused MPTs, OA feed (Example 8, Table 9). Conditions: 2 mM olivetolic acid, 48 h quench. On the procedure:
as §5, with “pCL-SE-0406, pCL-SE-0664, pCL-SE-0663, pCL-SE-0662, pCL-SE-0380 (MPT4), pCL-SE-0337.MPT21, pCL-SE-0337.MPT26,” for “pCL-SE-0337.MPT4.1”, “pCL-SE-0337.MPT31” for “pCL-SE-0753”, “48” for “24”, “(2%),” for “(6%),”, “(2” for “(3”
as §2, §3, §4

Experiment [6] deals with divarinic acid. Nature of the experiment: MPT fusions with GPS1.1 vs unfused MPTs, DVA feed (Example 9, Table 11). Conditions: 2 mM divarinic acid, 2% glucose, quenched after 48 h; strain sCL-SE-0128. How it is done:
as §1, with “plasmids pCL-SE-0406, pCL-SE-0664, pCL-SE-0663, pCL-SE-0662,” for “plasmids”, “pCL-SE-0337.MPT21,” for “pCL-SE-0337.MPT4, pCL-SE-0338.APT73.74, and pCL-SE-0338.APT73.77”, “and” for “and olivetolic acid or”, “quenched” for “quenched with equal volume of ethanol”, “CBGVA” for “CBG(V)A”, “FCBGVA.” for “FCBG(V)A.”
as §2, §3, §4

Experiment [7] relates to olivetolic acid. The experiment can be described thus: GPS-APT fusions, OA feed in vivo assay (Example 11). On the procedure: as §5, with “pCL-SE-0406, pCL-SE-0664, pCL-SE-0663, pCL-SE-0662, pCL-SE-0380 (MPT4), pCL-SE-0337.MPT21, pCL-SE-0337.MPT26,” for “pCL-SE-0337.MPT4.1”, “pCL-SE-0337.MPT31” for “pCL-SE-0753”, “48” for “24”, “(2%),” for “(6%),”, “(2” for “(3”
Soluble prenyl transferase APT73.77 was fused with GPS1.1 at the N- or C-terminus with different linkers creating the plasmids shown in Table 14. These fusion proteins were expressed and screened as described in Example 8 (olivetolic acid feed)
as §2, §3, §4

Setting [8] is: 2% glycerol, strain sCL-SE-0128.
Where [9] appears, read: in words, between APT73 mutants.
Setting [10] is: olivetolic acid feed as in Example 8, 48 h quench, strain sCL-SE-0128.

B1: MPT4.1 (protein)
chain: MSDNSIATKILNFGHTCWKLQRPYAVKGMISIACGLFGRELFNNRHLFSWGLMWKAFFALVPILSFNFFAAIMNQIYDVDIDRINKPDLPLVSGEMSIETAWILSIIVALTGLIVTIKLKSAPLFVFIYIFGIFAGFAYSVPPIRWKQYPFTNFLITISSHVGLAFTSYSATTSALGLPFVWRPAFSFIIAFMTVMGMTIAFAKDISDIEGDAKYGVSTVATKLGARNMTFVVSGVLLLNYLVSISIGIIWPQVFKSNIMILSHAILAFCLIFQTRELALANYASAPSRQFFEFIWLLYYAEYFVYVFI
modifications: MPT4.1 (point mutant, membrane-bound prenyltransferase)
As for B1, in the experiment with olivetolic acid [1], the CBGA amounted to 168 ± 33 µM, the FCBGA was 11 ± 2 µM and the CBGA/FCB is listed as 14.6. Further, in the experiment on olivetolic acid [1] (in words, OA feed, 48 h), the “FCBGA byproduct compared to MPT4” value is reported as “less FCBGA byproduct” and the “activity towards CBGA formation compared to MPT4” value is reported as “increased activity towards CBGA formation”. In the experiment with divarinic acid [2], this molecule returned a CBGVA of 28 ± 8 µM and an FCBGVA of 0 ± 0 µM. Also, in the experiment with olivetolic acid [3] (6% glucose, strain sCL-SE-0128), the CBGA was found to be 253 ± 18 µM and the FCBGA worked out at 26 ± 2 µM. Besides, the CBGA/FCBGA in the experiment on olivetolic acid [3] (product ratio) turned out to be 9.7.

B2: MPT4: membrane-bound prenyltransferase, SEQ ID NO: 2, comparator (protein)
chain: B1 chain with A25V
modifications: MPT4 (membrane-bound prenyltransferase)
Consider B2, for which the CBGA in the experiment with olivetolic acid [1] was 123 ± 13 µM; in the experiment with olivetolic acid [4] (setting [8]) it was 230 ± 15 µM; in the experiment on olivetolic acid [5] (2% glucose, strain sCL-SE-0128) it was 123 ± 13 µM. Further, the FCBGA came to 23 ± 2 µM in the experiment with olivetolic acid [1]; 51 ± 1 µM in the experiment with olivetolic acid [4] (setting [8]); 23 ± 2 µM with olivetolic acid [5] (2% glucose, strain sCL-SE-0128). In addition, in the experiment on olivetolic acid [1], the CBGA/FCB was determined as 5.3. For the same molecule, the CBGVA with divarinic acid [2] and in the experiment with divarinic acid [6] was 19 ± 2 µM each time. The FCBGVA in the experiment with divarinic acid [2] and with divarinic acid [6] was 0 ± 0 µM each time. For the same molecule, the CBGA/FCBGA in the experiment on olivetolic acid [4] (product ratio) worked out at 4.5; with olivetolic acid [5] (product ratio), 5.3.

B3: APT73.74: recombinant soluble aromatic prenyltransferase, SEQ ID NO: 37 (protein)
chain: MDEVYAAVEQTSRLLDVPCSPDRFEPVWKAFGDQLPDSHLVFSMAAGEAHRGELDFDFSLRPEGADPYTTALEHGFIEPTDHPVGSVLAEVGKRFAIASYGVEYGVVGGFKKSYAFFPLDDFPPLAQFAEVPSVPPCLAGHVETLTRLGFDDKVSIIGVNYRKNTLNVYLAASAVDTGDKLALLRAFGYPEPDARVRQFIERSFRLYPTFNWDSSAAERICFAVHTQQPGELPAPHDEPTEAFARQVPHVYEGGREFVSGVALAPSGASYYKLAALYQKARRCLH
modifications: APT73.74 (mutant soluble aromatic prenyltransferase)
As to B3, in the experiment with olivetolic acid [1], the CBGA is 123 ± 5 µM, the FCBGA was determined as 18 ± 1 µM and the CBGA/FCB was 6.7. Besides, the “selectivity (CBGA/FCBGA)” value in the experiment on olivetolic acid [1] (setting [9]) is reported as “better selectivity”. In the experiment on divarinic acid [2], the CBGVA was found to be 10 ± 0 µM and the FCBGVA came out at 0 ± 0 µM.

B4: APT73.77: recombinant soluble aromatic prenyltransferase, SEQ ID NO: 38 (protein)
chain: B3 chain with H285D
modifications: APT73.77 (mutant soluble aromatic prenyltransferase)
For B4, in the experiment on olivetolic acid [1], the CBGA was determined as 145 ± 13 µM, the FCBGA was 55 ± 3 µM and the CBGA/FCB turned out to be 2.6. The “overall activity (CBGA+FCBGA)” value with olivetolic acid [1] (setting [9]) is listed as “better overall activity”. For the same molecule, in the experiment on divarinic acid [2], the CBGVA amounted to 10 ± 1 µM and the FCBGVA turned out to be 1 ± 1 µM. Moreover, the CBGVA/FCBGVA in the experiment on divarinic acid [2] (product ratio) was 12.5. Also, in the experiment with olivetolic acid [7] (setting [10]), the CBGA stood at 215 ± 11 µM and the FCBGA came out at 32 ± 1 µM. For the same molecule, the CBGA/FCBG with olivetolic acid [7] (olivetolic acid feed, 48 h quench, product ratio) was 6.8.
